Substrate: Nc1ncnc2c1ncn2[C@@H]1O[C@H](COP(=O)(O)OP(=O)(O)OP(=O)(O)O)[C@@H](O)[C@H]1O
Assay: HPLC of inositol phosphates, Michaelis-Menten fit
Type: biochemical, Arabidopsis thaliana
Settings: co-substrate Ins(3,4,5,6)P4 (preferred), 0.08-10 mM ATP, 1 mM MgCl2, HEPES pH 7.5, 25 C

B1: ITPK1 (AtITPK1) (Arabidopsis thaliana) (protein)
chain: MSDSIQERYLVGYALAAKKQHSFIQPSLIEHSRQRGIDLVKLDPTKSLLEQGKLDCIIHKLYDVYWKENLHEFREKCPGVPVIDLPEAIERLHNRVSMLEVITQLRFPVSDSERFGVPEQVVVMDSSVLSGGGALGELKFPVIAKPLDADGSAKSHKMFLIYDQEGMKILKAPIVLQEFVNHGGVIFKVYVVGDHVKCVKRRSLPDISEEKIGTSKGSLPFSQISNLTAQEDKNIEYGEDRSLEKVEMPPLSFLTDLAKAMRESMGLNLFNFDVIRDAKDANRYLIIDINYFPGYAKMPSYEPVLTEFFWDMVTKKNHV
notes: recombinant in E. coli Rosetta 2(DE3)pLysS, pOPINF, 3C-cleavable His tag (printed as C-terminal); Ni-NTA and Superdex 75
How did the Km turn out when B1 was run?
Its Km is 770 ± 190 µM.
